For assay [1], the target named is FcγRIIIa V158 (UniProt P08637). The assay can be described thus: Biacore; FcγR captured through anti-His antibody; response at end of injection normalised to the standard.
For assay [2], the target named is FcγRI. The description is as above.
Assay [3] deals with FcγRI (UniProt P12314). Described as above.
Assay [4] concerns the target FcRn (UniProt P55899). The assay can be described thus: Biacore; FcRn directly immobilized; response at end of injection normalised to the standard.
Assay [5] addresses Flt3 receptor (human) (UniProt P36888). The assay can be described thus: cell-based or functional assay.

FcRn, sequence (P55899 24-297 limits assumed, form in doubt): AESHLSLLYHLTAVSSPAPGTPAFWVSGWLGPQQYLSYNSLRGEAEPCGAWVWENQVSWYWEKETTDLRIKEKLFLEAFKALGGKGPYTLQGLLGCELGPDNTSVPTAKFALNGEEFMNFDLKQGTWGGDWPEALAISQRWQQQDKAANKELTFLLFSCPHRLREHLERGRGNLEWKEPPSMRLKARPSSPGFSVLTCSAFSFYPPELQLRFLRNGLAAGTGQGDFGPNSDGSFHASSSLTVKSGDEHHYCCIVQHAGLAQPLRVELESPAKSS
FcγRIIIa V158, sequence (P08637 17-208 F176V limits assumed): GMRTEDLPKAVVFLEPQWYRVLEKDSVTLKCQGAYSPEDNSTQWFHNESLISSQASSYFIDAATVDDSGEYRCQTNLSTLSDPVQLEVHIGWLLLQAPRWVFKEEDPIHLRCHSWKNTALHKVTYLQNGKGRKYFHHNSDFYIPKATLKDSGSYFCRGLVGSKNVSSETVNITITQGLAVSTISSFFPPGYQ
FcγRI (UniProt P12314), sequence (P12314 16-288 limits assumed): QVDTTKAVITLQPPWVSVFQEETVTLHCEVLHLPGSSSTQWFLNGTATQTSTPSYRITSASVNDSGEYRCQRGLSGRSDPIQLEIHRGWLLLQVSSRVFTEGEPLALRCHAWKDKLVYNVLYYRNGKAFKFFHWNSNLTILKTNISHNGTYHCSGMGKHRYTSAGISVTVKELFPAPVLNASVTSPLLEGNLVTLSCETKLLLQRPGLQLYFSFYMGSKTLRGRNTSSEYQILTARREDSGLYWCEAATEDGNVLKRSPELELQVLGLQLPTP
Flt3 receptor (human), sequence (P36888 27-993): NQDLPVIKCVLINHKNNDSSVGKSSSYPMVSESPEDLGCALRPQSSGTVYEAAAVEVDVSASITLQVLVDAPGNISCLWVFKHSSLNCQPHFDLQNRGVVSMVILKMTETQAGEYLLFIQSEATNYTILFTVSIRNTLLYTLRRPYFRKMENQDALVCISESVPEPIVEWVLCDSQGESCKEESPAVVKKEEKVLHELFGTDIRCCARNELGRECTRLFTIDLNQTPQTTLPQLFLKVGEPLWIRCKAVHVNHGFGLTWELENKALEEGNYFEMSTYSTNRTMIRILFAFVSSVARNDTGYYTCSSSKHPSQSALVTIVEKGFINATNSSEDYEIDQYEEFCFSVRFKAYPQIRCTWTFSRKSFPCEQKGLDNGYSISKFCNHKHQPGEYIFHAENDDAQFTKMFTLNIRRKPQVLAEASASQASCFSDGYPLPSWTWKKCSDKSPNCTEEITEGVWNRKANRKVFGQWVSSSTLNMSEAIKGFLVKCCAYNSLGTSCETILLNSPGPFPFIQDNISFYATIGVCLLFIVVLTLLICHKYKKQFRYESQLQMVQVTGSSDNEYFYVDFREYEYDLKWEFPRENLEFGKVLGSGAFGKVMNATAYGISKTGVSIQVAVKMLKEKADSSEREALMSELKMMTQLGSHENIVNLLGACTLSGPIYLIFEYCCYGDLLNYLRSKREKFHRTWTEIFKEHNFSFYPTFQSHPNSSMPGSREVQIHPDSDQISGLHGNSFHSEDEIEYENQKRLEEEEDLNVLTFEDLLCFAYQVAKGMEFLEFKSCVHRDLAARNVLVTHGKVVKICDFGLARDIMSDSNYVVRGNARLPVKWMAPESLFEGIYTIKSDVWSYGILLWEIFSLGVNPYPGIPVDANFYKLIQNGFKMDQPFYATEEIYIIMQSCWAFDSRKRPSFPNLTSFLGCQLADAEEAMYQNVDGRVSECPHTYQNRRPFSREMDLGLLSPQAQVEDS

Turning to “anti-CD20 antibody (ocrelizumab variable domains) with IgG1 LALAPG constant region”, the relative binding level (%) at 10 ug/ml in assay [1] is 1.36%; in assay [2] it was -0.34%; in assay [3], 1.74%; in assay [4], 95.9%.
The like results for “anti-CD20 antibody (ocrelizumab variable domains) with IgG1 NG constant region” were, in that order, 2.12%, 0.06%, 4.5% and 86.7%.
For “anti-CD20 antibody (ocrelizumab variable domains) with IgG4 SP constant region”, the relative binding level (%) at 10 ug/ml in assay [1] came to 3.41%; in assay [2], 14.8%; in assay [3], 70.6%; in assay [4], 66.5%.
As for “gCDX-301 (from UniProt P49771 27-179) (ligand)”, the EC50 potency, proliferation of OCI-AML5 cells (Cell Titer Glo, 7 days) in assay [5] is 2.3 pM.

B1: anti-CD20 antibody (ocrelizumab variable domains) with IgG2 wildtype constant region (antibody, part only; not given: ocrelizumab variable domains, not shown: another chain or arm of the molecule)
constant: ASTKGPSVFPLAPCSRSTSESTAALGCLVKDYFPEPVTVSWNSGALTSGVHTFPAVLQSSGLYSLSSVVTVPSSNFGTQTYTCNVDHKPSNTKVDKTVERKCCVECPPCPAPPVAGPSVFLFPPKPKDTLMISRTPEVTCVVVDVSHEDPEVQFNWYVDGVEVHNAKTKPREEQFNSTFRVVSVLTVVHQDWLNGKEYKCKVSNKGLPAPIEKTISKTKGQPREPQVYTLPPSREEMTKNQVSLTCLVKGFYPSDIAVEWESNGQPENNYKTTPPMLDSDGSFFLYSKLTVDKSRWQQGNVFSCSVMHEALHNHYTQKSLSLSPGK
As to B1, the relative binding level (%) at 10 ug/ml in assay [1] is 3.85%; in assay [2] it was 179%; in assay [3], 2.43%; in assay [4], 99.4%.
